According to US20050106655A1:
One block for each molecule: values may come before it.

Experiments:
[1] = biological target: PKA (protein kinase A) catalytic unit, Promega; assay: cell-based or functional assay
[2] = tested on: T1, Lissamine rhodamine-labeled peptide substrate (Dye-RPKPVE-Norvaline-WRKpSA)
T1 sequence: RPKPVEXWRKSA

[3] = biological target: T2, Lissamine rhodamine-labeled peptide substrate (Dye-QQQEVYGMMPRDpSA)
T2 chain: QQQEVYGMMPRDSA

IC50 of inhibition of PKA activity (phosphorylation of Lissamine Rhodamine-labeled Kemptide, Fe(III) fluorescence quench assay) [1]: 2.6 nM
Molecule: PKI, a known synthetic peptide inhibitor of PKA

Molecule: Recombinant MMP-3 catalytic subunit (Matrix Metalloproteinase 3), Calbiochem
Km (protease assay, fluorescence quench) [2]: Km was 1.44±0.15 µM

B1: Calpain 1 from human erythrocytes, Calbiochem (protein)
chain 1: SEEIITPVYCTGVSAQVQKQRARELGLGRHENAIKYLGQDYEQLRVRCLQSGTLFRDEAFPPVPQSLGYKDLGPNSSKTYGIKWKRPTELLSNPQFIVDGATRTDICQGALGDCWLLAAIASLTLNDTLLHRVVPHGQSFQNGYAGIFHFQLWQFGEWVDVVVDDLLPIKDGKLVFVHSAEGNEFWSALLEKAYAKVNGSYEALSGGSTSEGFEDFTGGVTEWYELRKAPSDLYQIILKALERGSLLGCSIDISSVLDMEAITFKKLVKGHAYSVTGAKQVNYRGQVVSLIRMRNPWGEVEWTGAWSDSSSEWNNVDPYERDQLRVKMEDGEFWMSFRDFMREFTRLEICNLTPDALKSRTIRKWNTTLYEGTWRRGSTAGGCRNYPATFWVNPQFKIRLDETDDPDDYGDRESGCSFVLALMQKHRRRERRFGRDMETIGFAVYEVPPELVGQPAVHLKRDFFLANASRARSEQFINLREVSTRFRLPPGEYVVVPSTFEPNKEGDFVLRFFSEKSAGTVELDDQIQANLPDEQVLSEEEIDENFKALFRQLAGEDMEISVKELRTILNRIISKHKDLRTKGFSLESCRSMVNLMDRDGNGKLGLVEFNILWNRIRNYLSIFRKFDLDKSGSMSAYEMRMAIESAGFKLNKKLYELIITRYSEPDLAVDFDNFVCCLVRLETMFRFFKTLDTDLDGVVTFDLFKWLQLTMFA
chain 2: MFLVNSFLKGGGGGGGGGGGLGGGLGNVLGGLISGAGGGGGGGGGGGGGGGGGGGGTAMRILGGVISAISEAAAQYNPEPPPPRTHYSNIEANESEEVRQFRRLFAQLAGDDMEVSATELMNILNKVVTRHPDLKTDGFGIDTCRSMVAVMDSDTTGKLGFEEFKYLWNNIKRWQAIYKQFDTDRSGTICSSELPGAFEAAGFHLNEHLYNMIIRRYSDESGNMDFDNFISCLVRLDAMFRAFKSLDKDGTGQIQVNIQEWLQLTMYS
Km (protease assay, fluorescence quench) [3]: Km was 0.17±0.01 µM
